Test results from the DeepSol protein solubility set.

Experiment: soluble on expression in E. coli; label from the status in PepcDB or PDB records

Row | Sequence | soluble on expression in E. coli
1 | MISTRFLRPSVSIFGFGIKSSMSSRAPPKALLQDMVVPPRQLFGPGPSNMADSIAETQSRNLLGHLHPEFVQIMADVRLGLQYVFKTDNKYTFAVSGTGHSGMECAMVNLLEPGDKFLVVEIGLWGQRAADLANRMGIEVKKITAPQGQAVPVEDIRKAIADYKPNLVFVCQGDSSTGVAQPLETIGDACREHGALFLVDTVASLGGTPFAADDLKVDCVYSATQKVLNAPPGLAPISFSDRAMEKIRNRKQRVASFYFDAIELGNYWGCDGELKRYHHTAPISTVYALRAALSAIAKEGIDESIQRHKDNAQVLYATLKKHGLEPFVVDEKLRLPCLTTVKVPEGVDWKDVAGKMMTNGTEIAGGLGATVGKIWRIGTFGINSNSTKIENVVELLSKSIGEKSK | not soluble
2 | MSLDDFCNIPKGKEVVFGFNVPQSGAYADEGMDELKAYQLAVKHLNGEGDGGMLKTMKPLALKGNGVLGKKVTFVSGDTQTKADQARATAKRMIEKDGAIMITGGSSSAEAVAVQSLCQDVGVIFMAGLTHSNDTTGKDKRAYGFRHFFNAYMSGVALGPVLAEAYGKDRAAYHLTADYTWGWTQEESMKDATEKQGWKTVKAVRTPLGAADFSQYITPVLNSGADVLILNHYGKDMINSLTQAVQFGLRDKMANGKKFEIVVPLFSELMAQGAGDAIKGIYGTANWDWKLEDAATSAFTKSFGAAYGTPPSQAAQTCYVQAILYADAVERAGTFNPSKVIAALEGFEFDGLGNGKTLYRAADHQCFKDVLVVQGKEKPKDKFDLLEVKKIVPASQVTYDPSIFGGELGSKDAKAEGHHHHHH | soluble
3 | MMRRTLENRNAQTKQLQTAVSNVEKHFGELCQIFAAYVRKTARLRDKADLLVNEINAYAATETPHLKLGLMNFADEFAKLQDYRQAEVERLEAKVVEPLKTYGTIVKMKRDDLKATLTARNREAKQLTQLERTRQRNPSDRHVISQAETELQRAAMDASRTSRHLEETINNFERQKMKDIKTIFSEFITIEMLFHGKALEVYTAAYQNIQNIDEDEDLEVFRNSLYAPDYSSRLDIVRANSKSPLQRSLSAKCVSGTGQEAGWAATCQTLI | soluble
4 | MLSRKIIEESDIYLATSTRDPELFPLVIDHGEGVWIYDVDGNKYLDFTSGIGVNNLGWPSHPEVIKIGIEQMQKLAHAAANDFYNIPQLELAKKLVTYSPGNFQKKVFFSNSGTEAIEASIKVVKNTGRKYIIAFLGGFHGRTFGSISLTASKAVQRSIVGPFMPGVIHVPYPNPYRNPWHINGYENPSELVNRVIEFIEDYIFVNLVPPEEVAGIFFEPIQGEGGYVIPPKNFFAELQKLAKKYGILLVDDEVQMGLGRTGKLFAIENFNTVPDVITLAKALGGGIMPIGATIFRKDLDFKPGMHSNTFGGNALACAIGSKVIDIVKDLLPHVNEIGKIFAEELQGLADDVRGIGLAWGLEYNEKKVRDRIIGESFKRGLLLLPAGRSAIRVIPPLVISEEEAKQGLDILKKVIKVVK | soluble
5 | MATPAYMSITGTKQGLITAGAFTEDSVGNTYQEGHEDQVMVQGFNHEVIIPRDPQSGQPTGQRVHKPVVITKVFDKASPLLLAALTSGERLTKVEIQWYRTSAAGTQEHYYTTVLEDAIIVDIKDYMHNCQDPGNAHFTHLEDVHFTYRKITWTHEVSGTSGSDDWRSPVAG | soluble
6 | MKQITGVYTAPRPHWVGDGFPVRSLFSYQSHAQQLSPFLLLDYAGPHTFTPGNEKRGVGEHPHRGFETVTIVYSGEVEHRDSTGRGGVIGPGDVQWMTAGAGILHEEFHSDAFTRRGGELEMVQLWVNLPMKDKMTTPGYQSITHDVIPTVTLPDNAGVVRVIAGRYEETKGPAHTFSPLNVWDMRLQRNRQLTLAQPEGWSTALVVLKGNITVNGTTPVNEAQLVVLSQQGKTLHLEASSDASVLLLSGEPLNEPIVGYGPFVMNTKQEIAEAVRDFNSGRFGQI | not soluble
7 | PSETFYRAKIQEQRERHARYHDTTYNLEPDIKSTPGGLRDIHTLSWVARRHFGATSLLEMSRYGFLTDAEYRELVECQDFLWRVRFALHIELRRYDNRLTFAHQAQVAENLGYVGEGNRGVEMMMKEFYRTLRRVAELNKMLLKLFDQAIINGGATENAEILDADFQRRGSLIEARKPALFQARPETILDMFLHIANDSTIEGVSPPTLRQLRTARRRLN | not soluble
8 | GSHSMRYFYTAVSRPGRGEPHFIAVGYVDDTQFVRFDSDAASPRGEPRAPWVEQEGPEYWDRETQKYKRQAQTDRVSLRNLRGYYNQSEAGSHIIQRMYGCDVGPDGRLLRGYDQYAYDGKDYIALNEDLRSWTAADTAAQITQRKWEAAREAEQLRAYLEGLCVEWLRRYLKNGKETLQRAEHPKTHVTHHPVSDHEATLRCWALGFYPAEITLTWQWDGEDQTQDTELVETRPAGDGTFQKWAAVVVPSGEEQRYTCHVQHEGLPEPLTLRWEPSS | soluble
9 | MDCCEERGVARHKGLSQVGTPGCPRWSQAVSCRCSAYREAAVTAVQMPLTPGYGETPLPHDELAALLPEVVEVLDKPITRADVYDLEQGLQDQVFDLLMPTAVEGSLSLDELLSDHFVRDLHARMFGPV | soluble
10 | MTVSPVPSPKGRVLIAGATGFIGQFVATASLDAHRPTYILARPGPRSPSKAKIFKALEDKGAIIVYGLINEQEAMEKILKEHEIDIVVSTVGGESILDQIALVKAMKAVGTIKRFLPSEFGHDVNRADPVEPGLNMYREKRRVRQLVEESGIPFTYICCNSIASWPYYNNIHPSEVLPPTDFFQIYGDGNVKAYFVAGTDIGKFTMKTVDDVRTLNKSVHFRPSCNCLNINELASVWEKKIGRTLPRVTVTEDDLLAAAGENIIPQSVVAAFTHDIFIKGCQVNFSIDGPEDVEVTTLYPEDSFRTVEECFGEYIVKMEEKQPTADSAIANTGPVVGMRQVTATCA | soluble
11 | MGSDKIHHHHHHMEIFEDVVRCGGFRAAALGRGVSSSAISQSISVLEEALGIRLLNRTTRSVAPTEAGEQLLERLRPALYEIRTAVDDLNQLRERPSGTVRINAPGPAADHVLCPLTFEFMKIYPDVNVEIVSDAAIIDIVEQGFDAGVRFGNQLAQDMIAMPLGPALRYAIVASPDYLRKRGRPHSPRDLLQHDCIRRRFPGGTMVTWKFARDGDEVEITPKGRLTLSSAHQELQAALAGSGIAHLFEDYVRDDVEQGRLVELLCDWKQKLPSWYLYYPSRRHTSAAMRAFLEYIRNQRQHPDRR | not soluble
12 | MGHHHHHHGGHMSLMASISSLGVGSGLDLSSILDSLTAAQKATLTPISNQQSSFTAKLSAYGTLKSALTTFQTANTALSKADLFSATSTTSSTTAFSATTAGNAIAGKYTISVTHLAQAQTLTTRTTRDDTKTAIATSDSKLTIQQGGDKDPITIDISAANSSLSGIRDAINNAKAGVSASIINVGNGEYRLSVTSNDTGLDNAMTLSVSGDDALQSFMGYDASASSNGMEVSVAAQNAQLTVNNVAIENSSNTISDALENITLNLNDVTTGNQTLTITQDTSKAQTAIKDWVNAYNSLIDTFSSLTKYTAVDAGADSQSSSNGALLGDSTLRTIQTQLKSMLSNTVSSSSYKTLAQIGITTDPSDGKLELDADKLTAALKKDASGVGALIVGDGKKTGITTTIGSNLTSWLSTTGIIKAATDGVSKTLNKLTKDYNAASDRIDAQVARYKEQFTQLDVLMTSLNSTSSYLTQQFENNSNSKEGGS | soluble
13 | MSLKNLGSPVFFFQERPGKDGKPFKMVKFRSMRDALDSDGIPLPDGERLTPFGKKLRAASLDELPELWNILKGEMSLVGPRPLLMQYLPLYDNFQNRRHEMKPGITGWAQVNGRNALSWDEKFACDVWYIDHFSLCLDIKILLLTVKKVLIKEGISAQGEATMPPFTGKRKLAVVGAGGHGKVVADLAAALGRYREIVFLDDRAQGSVNGFSVIGTTLLLENSLSPEQYDVAVAVGNNRIRRQIAEKAAALGFALPVLVHPDATVSPSATVGQGSVVMAKAVVQAGSVLKDGVIVNTAATVDHDCLLNAFVHISPGAHLSGNTHIGEESWIGTGACSRQQIRIGSRATIGAGAVVVRDVSDGMTVAGNPAKPLPRKNPETSTAEGHHHHHH | not soluble
14 | MATHGQTCARPMCIPPSYADLGKAARDIFNKGFGFGLVKLDVKTKSCSGVEFSTSGSSNTDTGKVTGTLETKYKWCEYGLTFTEKWNTDNTLGTEIAIEDQICQGLKLTFDTTFSPNTGKKSGKIKSSYKRECINLGCDVDFDFAGPAIHGSAVFGYEGWLAGYQMTFDSAKSKLTRNNFAVGYRTGDFQLHTNVNDGTEFGGSIYQKVCEDLDTSVNLAWTSGTNCTRFGIAAKYQLDPTASISAKVNNSSLIGVGYTQTLRPGVKLTLSALVDGKSINAGGHKVGLALELEA | soluble
15 | MIEITVNDRLGKKVRIKCNPSDTIGDLKKLIAAQTGTRWEKIVLKKWYTIYKDHITLMDYEIHEGFNFELYYQ | not soluble
16 | MGSDKIHHHHHHMTKRAYQYRFYPTPEQAQLLARTFGCVRFVYNAVLRYRTDAFYQRQERIGYVEANAYLTRMKKADETAFLNEVSSVPLQQCLRHQQAAFKHFFEGRARYPAFKNKRHRQAAEFTRSAFKYRNGQLFLAKCKEPLAIRWSRELPSEPTTITISKDSAGRYFVSCLCEFTPETLPVTPRMTGIDLGLKDLFITDQGERIGNPRHTAKYAARLAKAQRRLSKKKLGSANRAKARKRVARLHAKISDCRMDRLHKLSRRLINENQVVCVESLKVKNMLRNPSLAKAIADAGWGEFARQLEYKAQWAGRQLVRIDPWYPSSKRCSDCGHIKDALPLSVRAWDCPACGVTHDRDINAARNIKAAGLAVLALGENVSGMEPVSVSGSR | not soluble
17 | DGPYLQILEQPKQRGFRFRYVCEGPSHGGLPGASSEKNKKSYPQVKICNYVGPAKVIVQLVTNGKNIHLHAHSLVGKHCEDGVCTVTAGPKDMVVGFANLGILHVTKKKVFETLEARMTEACIRGYNPGLLVHSDLAYLQAEGGGDRQLTDREKEIIRQAAVQQTKEMDLSVVRLMFTAFLPDSTGSFTRRLEPVVSDAIYDSKAPNASNLKIVRMDRTAGCVTGGEEIYLLCDKVQKDDIQIRFYEEEENGGVWEGFGDFSPTDVHRQFAIVFKTPKYKDVNITKPASVFVQLRRKSDLETSEPKPFLYYPEIKDKEEVQRKRQK | soluble
18 | MGSDKIHHHHHHMENQLLTLKNNELTVQINPKGAELTHVIENKNKFDFIWNGSEWPKHAPILFPAIGRSTDDEYLLNQKIYPMQQHGFASDYFFEIIDQKEDQISLSLKDNEETYQSYPFQFELKVTYQLVSKKLKIQFEIKNLSVKKLTFALGFHPAFNLSANFEDYQISFETKDKTLKQFEIVKNPFPYRSGKIIEINKAVSNFPLEREFFEKGLVIFDNKIEEVKLFSQETDYQMTMKMADFPYLCLWTKEDENLSYLCIEPFQGLPDILNQKQELLQKEGNISLKSNESKTYEVELTFNSNKGES | not soluble
19 | GPGSMPPAPAPPFSSVSQCLSALLPPTAFSLLPLTHTHTHTHTHRTCTHIIFSEPHIVFYCVCPFTRCHRRRPLPSPLSLSLPQHTTLSTAINKHEAEVVLDWSMSRLARALAKPFTVPVAMCTRHVAAMDEPLKRHIDAYAARGEDITIAVWREYVDGQRALLPYRWTKFRSEVAYLTSGQMAITDLTFADLLVFIRFLTKCLFIFIVAVMVGRRSVFPSLEPTSPFVEEIVKNWQPNRLHGVAGAEYMACDQAAAAGYGHR | soluble
20 | MGSDKIHHHHHHMSQDDLLSQEEIDALLKGVSGDEDNAQDERASREGKVRPFDPAKQHRIIRERLHALDIINERFARQFRVALFNLMRRSADITVESVRYQSYSEFSRNLPVPTNLNLITMKPLRGSALVVFPPSLVFMVVDNLFGGDGRFLTKSEGREFTRTEQRIIHRMLKMALEGYSESWKSVYPLDIEYTRSELQVKFANITNSPNEIVVNSTFHVEVGNLSSEFNICIPYSMIEPIRDILASPLHDTHPDEEQQWEARMAHEIRHSSVELTADFVDIPLRLRDVTQLSVGDIIPIELPEAVNVSVDGIPVMTCDYGSQKSQRALRVRHLIEHGSSQVAAKDPKDD | not soluble
